From patent publication US20260008852A1

Target: B7-H3 on CHO-K1 cells stably transfected with B7-H3 (GenScript #M00536) (UniProt Q5ZPR3)
Assay: cell-based or functional assay

B7-H3 on CHO-K1 cells stably transfected with B7-H3 (GenScript #M00536), sequence (Q5ZPR3 29-534 limits assumed): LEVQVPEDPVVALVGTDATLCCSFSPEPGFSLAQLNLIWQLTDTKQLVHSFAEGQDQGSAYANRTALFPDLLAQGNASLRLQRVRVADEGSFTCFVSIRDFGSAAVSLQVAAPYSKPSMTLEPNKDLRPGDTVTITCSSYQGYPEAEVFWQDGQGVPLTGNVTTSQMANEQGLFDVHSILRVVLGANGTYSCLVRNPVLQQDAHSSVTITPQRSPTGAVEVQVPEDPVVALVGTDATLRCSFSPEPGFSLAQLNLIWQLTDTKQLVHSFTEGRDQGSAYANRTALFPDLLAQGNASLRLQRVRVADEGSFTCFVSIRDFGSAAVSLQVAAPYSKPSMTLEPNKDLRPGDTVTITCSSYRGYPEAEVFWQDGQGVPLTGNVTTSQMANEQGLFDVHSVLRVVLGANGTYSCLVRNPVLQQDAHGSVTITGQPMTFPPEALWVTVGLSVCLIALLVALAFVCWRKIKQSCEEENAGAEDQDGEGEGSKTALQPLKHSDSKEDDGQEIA

- ADCC reporter assay, EC50 Value, CHOK1/B7-H3 cells: 4.55 µg/mL
- ADCC reporter assay, Max RLU, CHOK1/B7-H3 cells: 162000 RLU
Substance: Benchmark MGA-271 (antibody)
